Measurements as given in the supplement of paper PMC11246515.
± gives the standard deviation of the averaged measurements.

Assay: total protein half-life in vivo (active degradation + dilution); higher = more stable protein
[1] = E. coli NCM3722 delta-clpP delta-lon delta-hslV, growth: N-lim chemostat, doubling time 6 h
[2] = E. coli NCM3722 delta-clpP, growth: N-lim chemostat, doubling time 6 h
[3] = E. coli NCM3722 delta-hslV, growth: N-lim chemostat, doubling time 6 h
[4] = E. coli NCM3722 delta-lon, growth: N-lim chemostat, doubling time 6 h
[5] = E. coli NCM3722 delta-smpB, growth: N-lim chemostat, doubling time 6 h
[6] = wild type E. coli NCM3722, growth: C-lim chemostat, doubling time 3 h
[7] = wild type E. coli NCM3722, growth: C-lim chemostat, doubling time 6 h
[8] = wild type E. coli NCM3722, growth: C-lim chemostat, doubling time 12 h
[9] = wild type E. coli NCM3722, growth: N-lim chemostat, doubling time 6 h
[10] = wild type E. coli NCM3722, growth: N-lim chemostat, doubling time 12 h
[11] = wild type E. coli NCM3722, growth: P-lim chemostat, doubling time 6 h
[12] = wild type E. coli NCM3722, growth: P-lim chemostat, doubling time 12 h

Sequence	total protein half-life in vivo [1]	total protein half-life in vivo [2]	total protein half-life in vivo [3]	total protein half-life in vivo [4]	total protein half-life in vivo [5]	total protein half-life in vivo [6]	total protein half-life in vivo [7]	total protein half-life in vivo [8]	total protein half-life in vivo [9]	total protein half-life in vivo [10]	total protein half-life in vivo [11]	total protein half-life in vivo [12]
MIIPALDLIDGTVVRLHQGDYGKQRDYGNDPLPRLQDYAAQGAEVLHLVDLTGAKDPAKRQIPLIKTLVAGVNVPVQVGGGVRSEEDVAALLEAGVARVVVGSTAVKSQDMVKGWFERFGADALVLALDVRIDEQGNKQVAVSGWQENSGVSLEQLVETYLPVGLKHVLCTDISRDGTLAGSNVSLYEEVCARYPQVAFQSSGGIGDIDDVAALRGTGVRGVIVGRALLEGKFTVKEAIACWQNA	4.64 ± 0.11 h	3.46 ± 0.32 h	4.07 ± 0.29 h	4.52 ± 0.096 h	3.23 ± 0.34 h	3.21 ± 0.094 h	5.72 ± 0.66 h	10 ± 1.4 h	3.66 ± 0.097 h	5.29 ± 0.65 h	5.28 ± 0.072 h	9.43 ± 0.71 h
MIIRDENYFTDKYELTRTHSEVLEAVKVVKPGKTLDLGCGNGRNSLYLAANGYDVDAWDKNAMSIANVERIKSIENLDNLHTRVVDLNNLTFDRQYDFILSTVVLMFLEAKTIPGLIANMQRCTKPGGYNLIVAAMDTADYPCTVGFPFAFKEGELRRYYEGWERVKYNEDVGELHRTDANGNRIKLRFATMLARKK	5.25 ± 0.98 h	4.08 ± 0.48 h	4.13 ± 0.29 h	5.98 ± 0.65 h	3.94 ± 0.12 h	2.93 ± 0.1 h	5.19 ± 0.19 h	8.23 ± 1.5 h	4.09 ± 0.12 h	6.9 ± 0.16 h	6.01 ± 0.67 h	11 ± 0.36 h
MIKFLSALILLLVTTAAQAERIRDLTSVQGVRQNSLIGYGLVVGLDGTGDQTTQTPFTTQTLNNMLSQLGITVPTGTNMQLKNVAAVMVTASLPPFGRQGQTIDVVVSSMGNAKSLRGGTLLMTPLKGVDSQVYALAQGNILVGGAGASAGGSSVQVNQLNGGRITNGAVIERELPSQFGVGNTLNLQLNDEDFSMAQQIADTINRVRGYGSATALDARTIQVRVPSGNSSQVRFLADIQNMQVNVTPQDAKVVINSRTGSVVMNREVTLDSCAVAQGNLSVTVNRQANVSQPDTPFGGGQTVVTPQTQIDLRQSGGSLQSVRSSASLNNVVRALNALGATPMDLMSILQSMQSAGCLRAKLEII [P0A6S3]						2.203 ± 0.022 h	4.68 h	8.58 ± 1.3 h				
MIKHLVAPLVFTSLILTGCQSPQGKFTPEQVAAMQSYGFTESAGDWSLGLSDAILFAKNDYKLLPESQQQIQTMAAKLASTGLTHARMDGHTDNYGEDSYNEGLSLKRANVVADAWAMGGQIPRSNLTTQGLGKKYPIASNKTAQGRAENRRVAVVITTP	1.39 h					0.967 h			1.84 h		1.9 h	4.97 h
MIKIGVIADDFTGATDIASFLVENGLPTVQINGVPTGKMPEAIDALVISLKTRSCPVVEATQQSLAALSWLQQQGCKQIYFKYCSTFDSTAKGNIGPVTDALMDALDTPFTVFSPALPVNGRTVYQGYLFVMNQLLAESGMRHHPVNPMTDSYLPRLVEAQSTGRCGVVSAHVFEQGVDAVRQELARLQQEGYRYAVLDALTEHHLEIQGEALRDAPLVTGGSGLAIGLARQWAQENGNQARKAGRPLAGRGVVLSGSCSQMTNRQVAHYRQIAPAREVDVARCLSIETLAAYAHELAEWVLGQESVLAPLVFATASTDALAAIQQQYGAQKASQAVETLFSQLAARLAAEGVTRFIVAGGETSGVVTQSLGIKGFHIGPTISPACRG	5.65 ± 0.84 h											11.4 h
MIKKTTEIDAILLNLNKAIDAHYQWLVSMFHSVVARDASKPEITDNHSYGLCQFGRWIDHLGPLDNDELPYVRLMDSAHQHMHNCGRELMLAIVENHWQDAHFDAFQEGLLSFTAALTDYKIYLLTIRSNMDVLTGLPGRRVLDESFDHQLRNAEPLNLYLMLLDIDRFKLVNDTYGHLIGDVVLRTLATYLASWTRDYETVYRYGGEEFIIIVKAANDEEACRAGVRICQLVDNHAITHSEGHINITVTAGVSRAFPEEPLDVVIGRADRAMYEGKQTGRNRCMFIDEQNVINRV					1.44 h					3.5 h		
MIKLSEKGVFLASNNEIIAEEHFTGEIKKEEAKKGTIAWSILSSHNTSGNMDKLKIKFDSLASHDITFVGIVQTAKASGMERFPLPYVLTNCHNSLCAVGGTINGDDHVFGLSAAQRYGGIFVPPHIAVIHQYMREMMAGGGKMILGSDSHTRYGALGTMAVGEGGGELVKQLLNDTWDIDYPGVVAVHLTGKPAPYVGPQDVALAIIGAVFKNGYVKNKVMEFVGPGVSALSTDFRNSVDVMTTETTCLSSVWQTDEEVHNWLALHGRGQDYCQLNPQPMAYYDGCISVDLSAIKPMIALPFHPSNVYEIDTLNQNLTDILREIEIESERVAHGKAKLSLLDKVENGRLKVQQGIIAGCSGGNYENVIAAANALRGQSCGNDTFSLAVYPSSQPVFMDLAKKGVVADLIGAGAIIRTAFCGPCFGAGDTPINNGLSIRHTTRNFPNREGSKPANGQMSAVALMDARSIAATAANGGYLTSASELDCWDNVPEYAFDVTPYKNRVYQGFVKGATQQPLIYGPNIKDWPELGALTDNIVLKVCSKILDEVTTTDELIPSGETSSYRSNPIGLAEFTLSRRDPGYVSRSKATAELENQRLAGNVSELTEVFARIKQIAGQEHIDPLQTEIGSMVYAVKPGDGSAREQAASCQRVIGGLANIAEEYATKRYRSNVINWGMLPLQMAEVPTFEVGDYIYIPGIKAALDNPGTTFKGYVIHEDAPVTEITLYMESLTAEEREIIKAGSLINFNKNRQM		5.63 h	6.45 h			1.12 h	1.87 ± 0.76 h				2.37 h	1.31 ± 0.42 h
